Article PMC4951694

Key:
Test in all cases: ITC; 10 μM β3 peptide in the sample cell titrated with αIIb peptide; bicelles of 43 mM DHPC, 17 mM POPC, 25 mM NaH2PO4/Na2HPO4 pH 7.4, 28 °C; stoichiometry fixed at 1:1
[1] = target: integrin β3 TM peptide (human) (UniProt P05106)
[2] = target: integrin β3(A711P) TM peptide (human) (UniProt P05106)
[3] = target: integrin β3(W715Y) TM peptide (human) (UniProt P05106)
[4] = target: integrin β3(A711P/W715Y) TM peptide (human) (UniProt P05106)
[5] = target: integrin β3(L712A) TM peptide (human) (UniProt P05106)
[6] = target: integrin β3(A711P/L712A) TM peptide (human) (UniProt P05106)

**Q.** Which results are given for “integrin αIIb(G972A) TM peptide (from UniProt P08514 989-1029)”?
**A.** KXY [1]: 1080; dH [1]: -14.2 kcal/mol; KXY [2]: 5500; dH [2]: -16.2 kcal/mol

**Q.** “integrin αIIb TM peptide (from UniProt P08514 989-1029)” was tested. Which KXY [3] did it give?
**A.** The KXY was 1300.

**Q.** And the dH [3]?
**A.** The dH was -14.2 kcal/mol.

**Q.** What about the KXY [4] of the same substance?
**A.** Its KXY is 2200.

**Q.** And the dH [4]?
**A.** Its dH is -14.4 kcal/mol.

**Q.** What about the KXY [5] of the same substance?
**A.** Its KXY is 1900.

**Q.** And the dH [5]?
**A.** Its dH is -12 kcal/mol.

**Q.** And the KXY [2]?
**A.** Its KXY is 12700.

**Q.** What about the dH [2] of the same substance?
**A.** Its dH is -16.9 kcal/mol.

**Q.** And the KXY [6]?
**A.** The KXY was 4200.

**Q.** What about the dH [6] of the same substance?
**A.** Its dH is -12.8 kcal/mol.

**Q.** Which KXY [2] does the source give for “integrin αIIb(R995A) TM peptide (from UniProt P08514 989-1029)” here?
**A.** Its KXY is 4000.

**Q.** And the dH [2]?
**A.** Its dH is -5.6 kcal/mol.
